We go through 3 compounds from patent publication US6407222B1, “Cloning and expression of dog gonadotropin releasing hormone receptor” (Merck & Co., Inc., priority 1999, dated 2002).

Assay [1] addresses dog gonadotropin-releasing hormone (GnRH) receptor (dog) (UniProt Q9MZI6). Put plainly: whole cell radioligand binding assay on CHO-K1 clone 1B2-1F9.
Assay [2] has the same target. Put plainly: whole cell radioligand binding assay on transfected CHO-K1 clones (seven of 71 clones).
Another assay addresses T1, dog GnRH receptor (Canis lupus familiaris, UniProt Q9MZI6).
T1 construct: The full-length coding cDNA of the dog GnRH receptor was cloned from dog pituitary mRNA by RT-PCR; expressed in transfected cells
T1 sequence (Q9MZI6 1-327): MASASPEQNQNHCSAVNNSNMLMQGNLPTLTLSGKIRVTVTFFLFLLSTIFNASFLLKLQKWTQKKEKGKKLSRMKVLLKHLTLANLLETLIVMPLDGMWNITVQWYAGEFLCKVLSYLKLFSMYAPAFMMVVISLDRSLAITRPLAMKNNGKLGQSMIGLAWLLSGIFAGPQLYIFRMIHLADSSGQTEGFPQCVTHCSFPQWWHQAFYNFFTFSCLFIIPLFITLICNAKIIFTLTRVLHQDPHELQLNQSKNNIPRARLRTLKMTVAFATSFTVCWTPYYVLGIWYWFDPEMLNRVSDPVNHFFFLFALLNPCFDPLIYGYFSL
As to the kind of experiment: Phosphoinositide (PI) turnover assay in 1B2-1F9 cells (CHO-K1 stably expressing the dog GnRH receptor). The assay is classed as cell-based. The note with it: 1B2-1F9 CHO-K1 clone expressing dog GnRH receptor; 37° C., 1 hour; FIG. 5; read-out: EC50 of GnRH-stimulated PI turnover.

Assay [3] addresses dog gonadotropin-releasing hormone (GnRH) receptor (dog) (UniProt Q9MZI6). Put plainly: cell-based or functional assay.

Where only a bound is given, the exact number is not on record here.

Procedure for dog GnRH receptor: The coding cDNA of the dog GnRH receptor was subcloned into a polycistronic expression vector pIRES1.neo (Clontech Laboratories, Palo Alto, Calif.) to generate cells stably expressing the receptor. The plasmid DNA of pIRES1.neo-dog-GnRHR was transfected into CHO-K1 cells by lipofectin (GIBCO-BRL, Grand Island, N.Y.) following the manufacturer's instruction. Transfection was carried out overnight and the cells were split 48 hours later. G418 at 1 mg/ml was added 24 hours after splitting, and its concentration was increased to 2 mg/ml in 2-3 days. After 10 days selection by G418, colonies were picked and transferred to 24-well plates. The clones that expressed the dog GnRH receptor were screened by a whole cell binding assay using a radiolabeled peptide agonist of GnRH, 5-(^125Iodo-Tyr)-Buserelin (Woods Assay, Portland, Oreg.). […] After single cell isolation, the membrane from this clone was prepared, and the membrane binding assay was performed using ^125I-buserelin. […] The GnRH-stimulated PI turnover was also performed.
1B2-1F9 cells are functionally coupled to phospholipase C. […] The eluate was then counted in a scintillation counter.

In assay [1], 5-(125Iodo-Tyr)-Buserelin (peptide) showed a specific binding activity, fold above the background of more than 10 fold. The specific binding activity, fold above the non-specific binding in assay [2] stood at 5 fold.
As for `CC(C)C[C@H](NC(=O)CNC(=O)[C@H](Cc1ccc(O)cc1)NC(=O)[C@H](CO)NC(=O)[C@H](Cc1c[nH]c2ccccc12)NC(=O)[C@H](Cc1cnc[nH]1)NC(=O)[C@@H]1CCC(=O)N1)C(=O)N[C@@H](CCCNC(=N)N)C(=O)N1CCC[C@H]1C(=O)NCC(N)=O` [GnRH, Gonadotropin-releasing hormone], the EC50 on dog GnRH receptor was in the range of 0.3 to 0.4 nM.
“Gonadotropin-releasing hormone (GnRH) (from UniProt P01148 24-92) (ligand)” had an EC50 of GnRH-stimulated PI turnover in assay [3] of 0.3 to 0.4 nM.

As usually defined, the EC50 is the concentration that produces a half-maximal response.
